Assay results from the DeepSol protein solubility set.

Test: soluble on expression in E. coli; label from the status in PepcDB or PDB records

| Sequence | soluble on expression in E. coli |
| --- | --- |
| MPITIGRGFLKSEMFSQSAISQRSFFTLLWEKIKDFFCDTQRSTADQYIKELCDVASPPDAQRLFDLFCKLYELSSPSCRGNFHFQHYKDAECQYTNLCIKDGEDIPLCIMIRQDHYYYEIMNRTVLCVDTQSAHLKRYSDINIKASTYVCEPLCCLFPERLQLSLSGGITFSVDLKNIEETLIAMAEKGNLCDWKEQERKAAISSRINLGIAQAGVTAIDDAIKNKIAAKVIENTNLKNAAFEPNYAQSSVTQIVYSCLFKNEILMNMLEESSSHGLLCLNELTEYVALQVHNSLFSEDLSSLVETTKNEAHHQSLEHHHHHH | not soluble |
| MESLQSIKEIRKYIENNELVLMYFRSDNSGICYALDPLIEAISKKYSKISSVKVNTGNLPSVPADFKIFTVPEVIIFMNGSIVIEHFKYINFREIEEVLLRYYKCI | not soluble |
| ALYGNSSGGVINVTSQTGAQPPTVEASSYYGSFGTWHYGMKATGAVGDGSHAGDVDYTVSTNRFTTHGYRDHSGARKNLANARLGVRINDVSKLTLLLNSVDIKANDAGGLTADEWRDNPRQSPRGDQYNTRKNTRQTQAGLRYERQLSAQDDLSVMMYAGERETTQFQSIPRAPQLKPSHAGGVIDLTRHYQGIDTRLTHRGELLVPVTLTAGLDYENMSERRKGYENFVMVNGAPQYGEQGALRRNERNLMWNVDPYLQTQWQLTDKLSLDAGVRYSSVWFDSNDYYITPGNGDDSGDASYHKWLPAGSLKYALTDAWNVYLSAGRGFETPTINELSYRSDNQSGLNFGLKPSTNDTVEIGSKTRIGNGLFTAALFQTNTDNEIVVDSSSGGRTSYKNAGKTRRQGMELGLDQQFGESWRLKAAWTWLDATYRTNVCDDASCNGNRIPGIARNMGYASFGYQPEQGWYAGSDIRYMSDIMANDENTAKAPSWTVVGLTTGYKWSYGRMDMDLFGRIDNLFDREYVGSVIVNESNGRYYEPAPGRNYGIGLNLAWRFE | not soluble |
| MENKTNNTKTEIKKKDMSKTFETIKGELFFEDKVIQKIIGIALDEIDGLLTIDGGFFSNIAGKLVNTDNTTSGVDVEVGKKQVAVDLSIVAEYGKDVTTIYDKMKQVISNEVKKMTGLDVIEINVNVVDVKTKEQHENDSVTLQDHLSDAASATGEFASKQFEKSKEALGVASEKVSDGVQNVKEETEPRVKLEHHHHHH | soluble |
| MTSRGDSREKILHTASRLSQLQGYHATGLNQIVKESGAPKGSLYHFFPNGKEELAIEAVTYTGKIVEHLIQQSMDESSDPVEAIQLFIKKTASQFDNTESIKGIPVGLLASETALISEPLRTVCMKVFKSWEAVFARKLMENGFAEEEANQLGTLINSMIEGGIMLSLTNKDKTPLLLIAEQIPVLVRKKG | soluble |
| MGKQRECLVIVEGYDPYVVKVSHDATSYSDYKTGRELPFTIIRMNGFSDSEGVYCCIASDKSMEDHTDEARALLKAYKVKPL | not soluble |
| MGSDKIHHHHHHMELTGHMKNNRYSIFRNAICIAATAGMLFGCGPDKKPVEKVAEEVVLQPMVTPDFNSDSSYEYVSRQVAFGPRVPNTKPHMDCGEYLAKFFTKHGGWVYRQQFSAKAFDGTDLRLKNIIVSYNQKATKRILLAAHWDTRPFADQDEVDPKKPIDGANDGASGVGILMELARVINLAEKKPDVGFDIILFDGEDYGQPMYYPGPYQNDSWCLGSQYWAKHKFPANYSAYYGILLDMVGAKDATFAKEGVSVENAPSVVNNVWTTAARLGYGKHFINVMSQPITDDHTYINKLALIPMIDIIEYENSDDVYFGSYWHTHNDNMNIIDKNTLKAVGQTLIEVLYREKL | not soluble |
| MKTIKDWQINICLATYNGQKYLRQQLDSIIQQGYTDWICLIRDDGSTDDTVAIIKEYVNRDSRFIFINSNDDRKLGSHRSFYELVNYKKADFYVFSDQDDVWKENRLERYLEEAEKFNQELPLLVYSNWTSVDEKLTVLKEHNPATVIQEQIAFNQINGMVIMMNHELAKLWEYRQIGAHDSYVGTLAYAVGNVAYISDSTVLWRRQVGAESLNNYGRQYGVATFWQMINTSFDRASLIFAQVSDKMSLERKLFFSRFIELKNANLMRRIYLLSKLKLRRKSLKETVAMTILLLTGYGKPKALEHHHHHH | soluble |
| MNSLFLLLFICFNSGCGRKYYEEDIDRAFRSAEAEILPFRPHNVFSSDDSLMLNYSIAALAAIKMAQKTRDPRQKLPHHLCPLKKYNCLYGKYRHSDGRCTNIFFALSGSAYSSFSRRIPANYDDDISTPRLHGYRNGLLPPPAVVEKQIARTPAIYAISLTNTFLEFSEFLYNDLVKFVRLQDGLGCCGTGKSGECLNFGENFLDCYIRSAPSPRAHCSLGRREQMNLATAFLDAGPIYQDLRDTSKGKISSSFTLESTTKSSIHSLLIDEHNWVVDQIQKKFPDMGLELIFEEARKFVIAELQHITFEQFLPILLGDETMKKYDLRASHCDGGSCHEVEANTLNEFGSAVGLFYKFMTSSDKIYNPSLYSTSDFSTSPTSSSSKSPNVAEIISKGRDHGIATYSQWRKECGGGELKTYEDLIDLIDSNILKSLRDLYPDVLDVDLILLGIAENPVYGSLLGPTFGCIMALQFQKTKFGDTYWYTNKLTEDQLEEVKKTSISAMMCRHQKTSIIQKDVFKAADNFQNIPIFCNSSVFAKPDFSKWVETPEKHKNEQFDDILGECILEVFEARNRQRPATLQEGLHNSVALKSYGSMMLAKDEAVNEANVSLILLEATKKLVKLKHIELDSIQSVNIGEDFGKKSDSQCNPKNLPCDSTNPYRSYTGWCNNLETPSLANTFRELRRLLPPAYEDGIDLPRSKTITGSRLPSPRVISNMVHHAKKIEHVKYSHFVMEFGQFIDHDITHSPVDQNSDGTALNCSRCDSGRFVSPSCFPIPVPVNDVHFEPFSCLSFVRSLPAQKTLGYRNQMNQVSAYLDGSVMYGSTKCEGDRLRTFQDGKMKTTQTSRAPRHYGITLSQSDESEQDGCVSAPDAPCFIAGDDRNSQQTLLIAVHSVFHREHERITTTLKEINPNWDDEKIYQETRKLISAEFAHIVYNEYLPIIIGQKLIDDYDLRPRQDGYYDGYENCDASILQPFATAAFRFGHSTVTRFTPMQETVHDPATCVVDLASDFLNMSKIYDNEAVEQILGGMHGKHQMMTDRFVDDAIRNFLFSDRGRRGTGLDLISINIQRGRDHGIPPYNHYRSFCGLSRLTSFYSIFSDINQDGLTAIGKVYESPDDIDLFTGIVSEKTIPGGIVGPTAACIIAEQFRRLKKCDRFYYENGEDHSKFSASQLKEVRKTSMSALICANTKVPKISKDVFSVPDPFRYS | soluble |
| MRIWNRIRCISTIRKNPTCQDVKAPLVSSQVFDPDVWSWNSAPESSLDLPIDSSPNFSMPPATSSETEFAENEESTSSSDDKKKRSEVIEENRSDGHAPIKSALSILMRSLQKSSSMTTSLSDIDVTLFNFHSTKFAERLLNRNVSSVVIVESSHVFSKNAKKFASEFSNVSAYRADIYTLMGVGRKKTAQFPRKMMFADFGKNETPEQYENIHPLTLTSAESSSNSEHLHAKFRRPHLLGVLPTPTIQRTILDSMIQHVLLHHSGNDEDTIFRYGDTNLLTFLGSGILAQYTCSTDNRLNFLSHQHRRHSALFNKLFEVKMLQTRQSEDPETAEIPIGHPPTSFHPLLPTAKKITHEKKLSDVNLTNGLQYPVQILPQKHLKIGGNEVTTENGMGRMLVDYACFMTQIGRQPNAKAVDQVVRLLWPESALSIPADILGDHKIGQLPNDHLDVIFQHVHEELHNTSIAKTYCNELKIKRAI | not soluble |
| MEKLLSELAELGARQKFNGEIDFGAEIASDSLLEVMKIVGSEELSQQVLEGFLEQAPTIHQVLLGMTFASYLQSTTSGEASPGAQELSEPLKKARRSIRLLLNLTQRSPDFASRISSESVELLETLLATGSFDVECLIILLKTSQATWLEFQKSPRYSALLQRVLSKYSPDFSENSTILAYFSVLFEMDYGFLSMCYAEMDAPTFCEILDVLRVILTRKTLKIHSNNLLFVLNLLELVVVDYEAFWRARERKEPQSVEQRRVATVEILNLEVEIVGEMCSNTEMTSYLNEKATAMNSVVDVLDAVSIFRNKISIFLDFFQILHAEALFADFRAEQPSDWPKIESEHPRFEVLKRKIEEERRYEETQRRYPDRPRQPLPPKIQRVESSESLSLLANTIFSKYRSIDDVIGVPRVGELKLNCLKAIANLANLSDSNKLATLQNGRQGLISVLQCTTRRPEYFLESFTMRNQSIFCVRQLTDGCQENKEVVFNLQQPNQPIIDRKRLLEELGVHVDN | not soluble |
| MISDRPGLPGEDMRLALLSFENYLLANRNTEKPVLHIALSPAPEDKLTDEQLAELAQNYMQKMGYGDQPYIAYKHGDTHNTHIHIVSVCVDEEGRKINDSFEHRRSMTACRELEIDFGLRNGADMEERNQKAEMKKVDATQGDVRHQIGNTLKAVLESYRFQTFGEYSALLSTLNIEAKQVRGEFKGEPYTGIIYSATDDSGKVVSPPFKSSRFGKRFGNERLEKRMLSHTRDFKDGKWAPTIHAQVVYAMRHARSREELAGLLKKARIDAVFRENEQGRIYGVTFIDHNRREVFNGSRMGKEFSANIYNELFKWWDGIPATERSAHTGTELWQHHSHKAESGSPLEQAASIFSMETNPVDYGEEALARRMKKRRKAKRKSRGI | not soluble |
| MDSIGGVLNTMKKNLLITLALIIMSHHSAYAQDELTYIPIPKANQIADLNDLDKDGVINARDLCAGTPIGAEVDNDGCETYLHKEEQYQLK | not soluble |
| MSLVGDVYLGVGSASSEYWAAYIEGAKAVASSLGKDVNVIPSEFDGQKLLEQFGAVFAAGCEDCVVTVDPASNAFTKAMIERADTAGAKYVNLWNRPDEIHPWDTVPNTWIANISFDGVDSGYQNGMALCNALGGKGNIVALNGIPDNPPAKQRIAGLHKALQECPGLKLLDTQVGNWDQTQGQSITRAWLAKYGDELNGIFSANDGMALGAVAALREKGLVGKILVTGSDGSSDVIKLIEKGEMLSTMHIDGYVQGAYAVALAAAAVKGDIKMDELKQDQRDFFLSQTLVTKDNAASVLNSKEGHHHHHH | not soluble |
| MNRFLKHWRLSGRCEAFHGQIISYADDFVILSRGHAEDALTWTKAVMTKLGLTLNETKTSVKNARLESFDFLGYTLGPRHFRNGGRWYLGAAPSKKSVLRIKRKVSELLTPGNKGAWPEVQARLNRLLRGWSAYFSYGSLATAHQAVDRHVFDRVLAFLRRRHKTPGRGVRRFSDQIYGNPGVLVLNRVRKVSPTCALLEHHHHHH | not soluble |
| MSLNTKLLILDDDIDILQMLKTVFIGEEMDIILESESEQALRFITTERPNVAIVDINLPRKSGLQVLQEAKKIDPGLSVIMTTGNKTTQNAIEAMKYGAYDYVTKPFDMNKLKSAVHKALECNLLSRKVRYTKDTKQLSEDEGHHHHHH | not soluble |
| MSLGISEAFDLRPDYIISVIKDTKAKLVGFQFPEGLKRKGPELAKIVEEATGAEVLISGDPCFGACDLDRTLLDHVELLFHFGHAELEDVRLSDKVYFIETRSSVDVRPVVEKALPGLKGEKIGLITTVQHVHKLHDVCRVLEAGGKTCVIGRGDSRLAYAGQVLGCNFSAARDEVCDEYLYIGSGDFHPLGVALSTKKRVLAADPFSGEVREVDPSRILRQRSAVIAKSLDAQVFGIIVSSKNGQMRMELASSLKEIAKKHGKEAHLILIDLVTPDQLLQFKVDAFVNTACPRLAVDEVGRFPSPMLTPQEFEIVLGEREWEKLVLDEITEEPVLEHHHHHH | soluble |
| MSLEIIPVIDLMNGLAVSGKSGNRKEYVPIKSVLCDSSDPHDVIKKYNENGAKKVYIADLNSIMGTGNNFEIVKSLDIFKIVDFGVTDKKDLENVKKCVNMTILGTETLNDISILKEGNIILSLDFKDGKLLNYDLDDILSKVDKKTPLIILDISSVGTQKGINVELIKDILKKTDNPIYIGGGIKSEDDLKISKELGISGVLIGTTIHNGKLDLKKIIQKYGEGHHHHHH | soluble |
